Substitutions are numbered along the chain they refer to.
B1: hu30L2H7 (antibody, human IgG1, kappa)
heavy: not shown
light: DIVMTQSPDSLAVSLGERATINCKASENVGYVSWYQQKPGQPPKLLIYGASNRYTGVPDRFSGSGSATDFTLTISSLQAEDVAVYHCGQSYSYPLTFGQGTKLEIKRTVAAPSVFIFPPSDEQLKSGTASVVCLLNNFYPREAKVQWKVDNALQSGNSQESVTEQDSKDSTYSLSSTLTLSKADYEKHKVYACEVTHQGLSSPVTKSFNRGEC
B2: hu30L3H5 (antibody, human IgG1, kappa, V domains shown)
VH: EVRLVQSGAEVKKPGASVKVSCKASGYTFTDYYMNWVRQAPGQSLEWMGIINPYTGDTSYNQKFRGRVTLTVDKSASTAYMELSSLRSEDTAVYYCARYHYGPHLEGYFDVWGQGTTVTVSS
VL: DIVMTQSPKSLAVSLGERATINCKASENVGYVSWYQQKPGQSPKLLIYGASNRYTGVPDRFSGSGSATDFTLTISSLQAEDVAVYHCGQSYSYPLTFGQGTKLEIKR
B3: hu30L3H6 (antibody, human IgG1, kappa, V domains shown)
VH: B2 VH with T55N, G56V
VL: B2 VL
B4: hu30L3H3 (antibody, human IgG1, kappa, V domains shown)
VH: B2 VH with T55Q
VL: B2 VL
B5: hu30L3H4 (antibody, human IgG1, kappa, V domains shown)
VH: B2 VH with T55S
VL: B2 VL
B6: hu30L3H2 (antibody, human IgG1, kappa)
heavy: not shown
light: B1 light with D9K, P42S
B7: hu30L3H7 (antibody, human IgG1, kappa)
heavy: not shown
light: B1 light with D9K, P42S
B8: hu30L3H1 (antibody, human IgG1, kappa, V domains shown)
VH: B2 VH with R3Q, T55N, L70I
VL: B2 VL
B9: hu6L2H2 (antibody, human IgG1, kappa, V domains shown)
VH: EVQLVQSGAEVKKPGASVKVSCKASGYTFTDYYMNWVRQAPGQRLEWMGIINPYSGVTIYNHKFKGRVTLTVDKSANTAYMELSSLRSEDTAVYYCARQDSLLDYAMDYWGQGTTVTVSS
VL: DIQMTQSPSSLSASVGDRVTITCHASQGISGNMGWLQQKPGKAPKGLIYHGANLEDGVPSRFSGSGSGADYTLTISSLQPEDFATYYCVQYAQFPYTFGGGTKVEIKR
B10: hu6L2H6 (antibody, human IgG1, kappa, V domains shown)
VH: EVQLVQSGSELKKPGASVKVSCKASGYTFTDYYMNWVRQAPGQGLEWMGIINPYSGVTIYNHKFKGRFVLSVDKSSNTAYLQISSLKAEDTAVYYCARQDSLLDYAMDYWGQGTTVTVSS
VL: B9 VL
B11: hu6L4H12 (antibody, human IgG1, kappa, V domains shown)
VH: B10 VH with V69A
VL: B9 VL with T85D
B12: hu6L4H11 (antibody, human IgG1, kappa, V domains shown)
VH: B10 VH with R38K
VL: B9 VL with T85D
B13: hu6L4H4 (antibody, human IgG1, kappa, V domains shown)
VH: B9 VH with Q43K
VL: B9 VL with T85D
B14: hu6L4H13 (antibody, human IgG1, kappa, V domains shown)
VH: B10 VH with R38K, V69A
VL: B9 VL with T85D
notes: also called hu6L4VH13
B15: hu6L2H5 (antibody, human IgG1, kappa, V domains shown)
VH: B10 VH with S76V, N77S
VL: B9 VL
B16: hu6L2H11 (antibody, human IgG1, kappa, V domains shown)
VH: B10 VH with R38K
VL: B9 VL
B17: hu6L2H13 (antibody, human IgG1, kappa, V domains shown)
VH: B10 VH with R38K, V69A
VL: B9 VL
B18: hu6L2H12 (antibody, human IgG1, kappa, V domains shown)
VH: B10 VH with V69A
VL: B9 VL

These binders were tested against T1, human DLL3 (ACRO, DLL3-H52H4) (human, UniProt Q9NYJ7 27-492) (assay: SPR Biacore 8K, Ab captured on Protein A).
T1 construct: Bought
T1 sequence: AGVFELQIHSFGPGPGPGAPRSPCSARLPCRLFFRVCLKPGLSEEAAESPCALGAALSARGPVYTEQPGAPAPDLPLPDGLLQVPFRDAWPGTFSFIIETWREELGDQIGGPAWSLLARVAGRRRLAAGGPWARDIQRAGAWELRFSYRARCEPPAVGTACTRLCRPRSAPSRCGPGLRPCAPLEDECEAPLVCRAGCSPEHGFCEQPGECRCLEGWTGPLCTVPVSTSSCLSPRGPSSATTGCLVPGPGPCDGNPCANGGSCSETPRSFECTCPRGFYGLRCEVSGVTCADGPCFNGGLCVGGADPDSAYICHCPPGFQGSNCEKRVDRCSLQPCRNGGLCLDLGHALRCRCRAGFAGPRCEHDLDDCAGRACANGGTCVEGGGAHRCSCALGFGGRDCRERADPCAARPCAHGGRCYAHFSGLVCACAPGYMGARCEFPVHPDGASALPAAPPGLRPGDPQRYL
Text: Test antibodies were affinity-captured with a Protein A biosensor chip (Cat. #29127556, Cytiva) for 18 seconds, and then the antigens human DLL3 (ACRO, DLL3-H52H4), cynomolgus monkey DLL3 (KACTUS, DLL-RM103), mouse DLL3 (KACTUS, DLL-MM103), human CD3D&3E (ACRO, CDD-H52W1), and monkey CD3D&3E (ACRO, CDD-C52W4) were allowed to flow through the surface of the chip for 180 seconds, followed by 600 seconds of dissociation. Reaction signals were detected in real time using a Biacore 8K (Cytiva) instrument to obtain association and dissociation curves. After the dissociation in each experimental cycle, the chip was washed and regenerated with a 10 mM glycine-hydrochloric acid solution (pH 1.5, Cat. #BR-1003-54, Cytiva). Data fitting was performed using a 1:1 Model.
A Kd of 1.09 nM, a koff of 0.000983 s⁻¹ and a kon of 900000 M⁻¹ s⁻¹ were found for B1 in this work.
A Kd of 0.735 nM, a koff of 0.00082 s⁻¹ and a kon of 1.12e+06 M⁻¹ s⁻¹ were found for B2 in this work.
A Kd of 0.939 nM, a koff of 0.000894 s⁻¹ and a kon of 952000 M⁻¹ s⁻¹ were found for B3 in this work.
A Kd of 1.25 nM, a koff of 0.00131 s⁻¹ and a kon of 1.05e+06 M⁻¹ s⁻¹ were found for B4 in this work.
A Kd of 0.882 nM, a koff of 0.000956 s⁻¹ and a kon of 1.08e+06 M⁻¹ s⁻¹ were found for B5 in this work.
A Kd of 0.891 nM, a koff of 0.000762 s⁻¹ and a kon of 855000 M⁻¹ s⁻¹ were found for B6 in this work.
A Kd of 0.815 nM, a koff of 0.000853 s⁻¹ and a kon of 1.05e+06 M⁻¹ s⁻¹ were found for B7 in this work.
A Kd of 0.362 nM, a koff of 0.00059 s⁻¹ and a kon of 1.63e+06 M⁻¹ s⁻¹ were found for B8 in this work.
A Kd of 1.64 nM, a koff of 0.00116 s⁻¹ and a kon of 704000 M⁻¹ s⁻¹ were found for B9 in this work.
A Kd of 0.877 nM, a koff of 0.000756 s⁻¹ and a kon of 863000 M⁻¹ s⁻¹ were found for B10 in this work.
A Kd of 0.391 nM, a koff of 0.000805 s⁻¹ and a kon of 2.06e+06 M⁻¹ s⁻¹ were found for B11 in this work.
A Kd of 0.314 nM, a koff of 0.000672 s⁻¹ and a kon of 2.14e+06 M⁻¹ s⁻¹ were found for B12 in this work.
A Kd of 1.45 nM, a koff of 0.00108 s⁻¹ and a kon of 743000 M⁻¹ s⁻¹ were found for B13 in this work.
A Kd of 0.322 nM, a koff of 0.000695 s⁻¹ and a kon of 2.16e+06 M⁻¹ s⁻¹ were found for B14 in this work.
A Kd of 0.969 nM, a koff of 0.000784 s⁻¹ and a kon of 810000 M⁻¹ s⁻¹ were found for B15 in this work.
A Kd of 0.363 nM, a koff of 0.000749 s⁻¹ and a kon of 2.06e+06 M⁻¹ s⁻¹ were found for B16 in this work.
A Kd of 0.382 nM, a koff of 0.000803 s⁻¹ and a kon of 2.1e+06 M⁻¹ s⁻¹ were found for B17 in this work.
A Kd of 0.461 nM, a koff of 0.000913 s⁻¹ and a kon of 1.98e+06 M⁻¹ s⁻¹ were found for B18 in this work.

The binders below were run against T2, human DLL3 on cells (human, UniProt Q9NYJ7 27-618) (assay: flow cytometry, H1184 cells).
T2 construct: Endogenous on H1184 and SHP77; Cell line is named under assay; also called H1184; DLL3/H82
T2 sequence: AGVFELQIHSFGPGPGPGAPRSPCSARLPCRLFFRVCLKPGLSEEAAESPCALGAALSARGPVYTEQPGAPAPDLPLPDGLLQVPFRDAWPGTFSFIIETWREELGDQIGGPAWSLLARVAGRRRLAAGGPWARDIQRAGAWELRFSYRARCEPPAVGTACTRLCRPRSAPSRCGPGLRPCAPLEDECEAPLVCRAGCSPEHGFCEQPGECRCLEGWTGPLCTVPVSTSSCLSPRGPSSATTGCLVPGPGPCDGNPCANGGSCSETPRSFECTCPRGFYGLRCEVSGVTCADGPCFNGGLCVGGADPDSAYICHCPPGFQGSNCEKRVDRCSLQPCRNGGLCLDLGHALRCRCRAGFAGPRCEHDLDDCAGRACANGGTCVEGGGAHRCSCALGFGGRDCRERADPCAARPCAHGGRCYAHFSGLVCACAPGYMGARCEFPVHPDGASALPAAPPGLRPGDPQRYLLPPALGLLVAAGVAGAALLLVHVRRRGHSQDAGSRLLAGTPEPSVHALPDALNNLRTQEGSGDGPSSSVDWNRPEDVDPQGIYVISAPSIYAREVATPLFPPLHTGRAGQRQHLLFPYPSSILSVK
Description: (§1) The plates were centrifuged at 300 g for 5 min, and the supernatant was removed. Different concentrations of test antibodies were added at 100 μL/well. The plates were incubated in the dark in a refrigerator at 4° C. for 1 h. After 3 centrifugal washes at 300 g, working concentrations of APC anti-human IgG Fc (BioLegend, 410712) or PE F(ab′)2-goat anti-human IgG (invitrogen, H10104) were added. The plates were incubated in the dark in a refrigerator at 4° C. for 40 min. After 3 centrifugal washes at 300 g, the geometric mean fluorescence intensity was measured on an Invitrogen flow cytometer, and the EC50 values for the binding of the antibodies to DLL3-expressing cells were calculated.
An EC50 of 0.06 nM and an Emax of 2190 were found for B9 in this work.
An EC50 of 0.05 nM and an Emax of 2420 were found for B10 in this work.
An EC50 of 0.05 nM and an Emax of 2130 were found for B11 in this work.
An EC50 of 0.07 nM and an Emax of 2190 were found for B12 in this work.
An EC50 of 0.06 nM and an Emax of 2310 were found for B13 in this work.
An EC50 of 0.09 nM and an Emax of 2120 were found for B14 in this work.
An EC50 of 0.06 nM and an Emax of 2490 were found for B15 in this work.
An EC50 of 0.04 nM and an Emax of 1960 were found for B16 in this work.
An EC50 of 0.1 nM and an Emax of 2100 were found for B17 in this work.
An EC50 of 0.1 nM and an Emax of 2140 were found for B18 in this work.

What follows are binders tested against T2, human DLL3 on cells (assay: flow cytometry, DLL3/H82 cells).
Parameters: key to Emax: geometric mean fluorescence intensity (flow cytometry)
Description: as §1
An EC50 of 0.83 nM and an Emax of 5580 were found for B1 in this work.
An EC50 of 0.43 nM and an Emax of 5250 were found for B2 in this work.
An EC50 of 0.46 nM and an Emax of 5340 were found for B3 in this work.
An EC50 of 0.43 nM and an Emax of 5300 were found for B4 in this work.
An EC50 of 0.43 nM and an Emax of 5340 were found for B5 in this work.
An EC50 of 0.44 nM and an Emax of 5390 were found for B6 in this work.
An EC50 of 0.43 nM and an Emax of 5450 were found for B7 in this work.
An EC50 of 0.51 nM and an Emax of 5530 were found for B8 in this work.
